Measured values published in doi:10.1101/609503.

Target: MepS (E. coli) (UniProt P0AFV4)
Assay: MST

Sequence of MepS (E. coli) (P0AFV4 27-188): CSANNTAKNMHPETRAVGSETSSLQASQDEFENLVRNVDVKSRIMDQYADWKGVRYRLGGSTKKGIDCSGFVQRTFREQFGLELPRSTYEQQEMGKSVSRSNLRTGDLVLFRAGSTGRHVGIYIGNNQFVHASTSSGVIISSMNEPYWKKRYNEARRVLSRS

- Kd: 145 nM
Substance: NlpI (soluble version, residues 19-294) (from UniProt P0AFB1 19-294) (natural protein)
